B1: Tissue-type plasminogen activator, P00750 (parent)
chain: MDAMKRGLCCVLLLCGAVFVSPSQEIHARFRRGARSYQVICRDEKTQMIYQQHQSWLRPVLRSNRVEYCWCNSGRAQCHSVPVKSCSEPRCFNGGTCQQALYFSDFVCQCPEGFAGKCCEIDTRATCYEDQGISYRGTWSTAESGAECTNWNSSALAQKPYSGRRPDAIRLGLGNHNYCRNPDRDSKPWCYVFKAGKYSSEFCSTPACSEGNSDCYFGNGSAYRGTHSLTESGASCLPWNSMILIGKVYTAQNPSAQALGLGKHNYCRNPDGDAKPWCHVLKNRRLTWEYCDVPSCSTCGLRQYSQPQFRIKGGLFADIASHPWQAAIFAKHRRSPGERFLCGGILISSCWILSAAHCFQERFPPHHLTVILGRTYRVVPGEEEQKFEVEKYIVHKEFDDDTYDNDIALLQLKSDSSRCAQESSVVRTVCLPPADLQLPDWTECELSGYGKHEALSPFYSERLKEAHVRLYPSSRCTSQHLLNRTVTDNMLCAGDTRSGGPQANLHDACQGDSGGPLVCLNDGRMTLVGIISWGLGCGQKDVPGVYTKVTNYLDWIRDNMRP

In the data set the parent is B1. The settings on record: Homo sapiens, pH 4.5, Thermal, DSC, reversible: yes, structure 1TPK, whole UniProt chain shown.
The mark [1] stands for this setting: 64.3 °C, Citric acid trisodium citrate 0.1 M 0.1 M.
Where [2] appears, read: Citric acid/trisodium citrate 0.1 M/0.1 M/.

This is an account of results in FireProtDB (doi:10.1021/bi00435a062).

As a reminder, the Tm is the temperature at which the thermal transition is half complete.

As to V280M, under setting [1], the “ddG of mutation (higher = less stable)” value amounted to 2.2 kcal/mol. In addition, under setting [2], the Tm worked out at 54.4 °C; the “change of melting temperature, mutant - wild type (higher = more stable)” value (shortened to “change of melting temperature, mutant”) was -9.9 °C; the “unfolding enthalpy (calorimetric)” value came out at 67.8 kcal/mol.

For the variant V280A, under setting [2], the Tm worked out at 55.5 °C; the “change of melting temperature, mutant” value is -8.8 °C; the “unfolding enthalpy (calorimetric)” value is 72.5 kcal/mol.

For the variant V280S, under setting [1], the “ddG of mutation (higher = less stable)” value worked out at 2.4 kcal/mol and the “heat capacity change of unfolding” value is 0.9 kcal/mol/K. Under setting [2], the melting temperature (Tm) turned out to be 52.9 °C; the “change of melting temperature, mutant” value is -11.4 °C; the “unfolding enthalpy (calorimetric)” value turned out to be 63.4 kcal/mol.

In the case of V280T, under setting [1], the “ddG of mutation (higher = less stable)” value amounted to 1 kcal/mol and the “heat capacity change of unfolding” value is 0.9 kcal/mol/K. Besides, under setting [2], the Tm is 60 °C; the “change of melting temperature, mutant” value was -4.3 °C; the “unfolding enthalpy (calorimetric)” value turned out to be 75.1 kcal/mol.

In the case of V280L, under setting [1], the “ddG of mutation (higher = less stable)” value was determined as 1.9 kcal/mol and the “heat capacity change of unfolding” value was 0.9 kcal/mol/K. In addition, under setting [2], the Tm was 55.8 °C; the “change of melting temperature, mutant” value is -8.5 °C; the “unfolding enthalpy (calorimetric)” value was 70.1 kcal/mol.

V280I: under setting [1], the “ddG of mutation (higher = less stable)” value is -0.3 kcal/mol, the “heat capacity change of unfolding” value worked out at 0.9 kcal/mol/K and the “unfolding enthalpy (calorimetric)” value stood at 67.5 kcal/mol. Besides, under setting [2], the Tm is 64.8 °C; the “change of melting temperature, mutant” value came out at 0.5 °C; the “unfolding enthalpy (calorimetric)” value stood at 67.5 kcal/mol.
